Data on two proteins can be found in publication PMC4336473, “Role of L-alanine for redox self-sufficient amination of alcohols” (Microbial Cell Factories, 2015).

Substrate in series [1]: C[C@H](N)C(=O)O
Description: HPLC of hexylamine formation, crude extract. The series is classed as biochemical, Chromobacterium violaceum. The note with it: 10 mM hexanal as acceptor, potassium phosphate pH 7.4 (50 mM in results, 100 mM in methods), 37°C. The source says: HPLC of hexylamine formation, crude extract on TaCv (transaminase from Chromobacterium violaceum)

Substrate in series [2]: C[C@H](N)C(=O)O
Description: HPLC of hexylamine formation, crude extract. Type of series: biochemical, Vibrio fluvialis. To be noted: 10 mM hexanal as acceptor, potassium phosphate pH 7.4 (50 mM in results, 100 mM in methods), 37°C. The source says: HPLC of hexylamine formation, crude extract on TaVf (transaminase from Vibrio fluvialis)

B1: TaCv (transaminase from Chromobacterium violaceum) (Chromobacterium violaceum ATCC 12472) (protein)
chain: MQKQRTTSQWRELDAAHHLHPFTDTASLNQAGARVMTRGEGVYLWDSEGNKIIDGMAGLWCVNVGYGRKDFAEAARRQMEELPFYNTFFKTTHPAVVELSSLLAEVTPAGFDRVFYTNSGSESVDTMIRMVRRYWDVQGKPEKKTLIGRWNGYHGSTIGGASLGGMKYMHEQGDLPIPGMAHIEQPWWYKHGKDMTPDEFGVVAARWLEEKILEIGADKVAAFVGEPIQGAGGVIVPPATYWPEIERICRKYDVLLVADEVICGFGRTGEWFGHQHFGFQPDLFTAAKGLSSGYLPIGAVFVGKRVAEGLIAGGDFNHGFTYSGHPVCAAVAHANVAALRDEGIVQRVKDDIGPYMQKRWRETFSRFEHVDDVRGVGMVQAFTLVKNKAKRELFPDFGEIGTLCRDIFFRNNLIMRACGDHIVSAPPLVMTRAEVDEMLAVAERCLEEFEQTLKARGLA
notes: full length, codon-optimized, untagged by primers (pTrc99A-taCv), E. coli W3110 crude extract
Regarding B1, in series [1], the Km (commonly the substrate concentration at which the rate is half of its maximum) turned out to be 35.00 ± 2.20 mM and the Vmax (usually the top rate of the reaction or transport when substrate is in excess) is 2 µmol/min/mg.

B2: TaVf (transaminase from Vibrio fluvialis) (Vibrio fluvialis) (protein)
chain: MNKPQSWEARAETYSLYGFTDMPSLHQRGTVVVTHGEGPYIVDVNGRRYLDANSGLWNMVAGFDHKGLIDAAKAQYERFPGYHAFFGRMSDQTVMLSEKLVEVSPFDSGRVFYTNSGSEANDTMVKMLWFLHAAEGKPQKRKILTRWNAYHGVTAVSASMTGKPYNSVFGLPLPGFVHLTCPHYWRYGEEGETEEQFVARLARELEETIQREGADTIAGFFAEPVMGAGGVIPPAKGYFQAILPILRKYDIPVISDEVICGFGRTGNTWGCVTYDFTPDAIISSKNLTAGFFPMGAVILGPELSKRLETAIEAIEEFPHGFTASGHPVGCAIALKAIDVVMNEGLAENVRRLAPRFEERLKHIAERPNIGEYRGIGFMWALEAVKDKASKTPFDGNLSVSERIANTCTDLGLICRPLGQSVVLCPPFILTEAQMDEMFDKLEKALDKVFAEVA
notes: full length, untagged by primers (pTrc99A-taVf), E. coli W3110 crude extract
As to B2, in series [2], the Km was found to be 20.00 ± 1.10 mM and the Vmax turned out to be 0.3 µmol/min/mg.
